The Kd is the equilibrium constant for the complex coming apart.

The results in this text go back to paper PMC11500499, “Molecular dissection of the chromosome partitioning protein RocS and regulation by phosphorylation”.

The target of the data set is T1, RocS WT-ΔAH (Streptococcus pneumoniae R6, UniProt Q8DQ15 1-152).
T1 sequence: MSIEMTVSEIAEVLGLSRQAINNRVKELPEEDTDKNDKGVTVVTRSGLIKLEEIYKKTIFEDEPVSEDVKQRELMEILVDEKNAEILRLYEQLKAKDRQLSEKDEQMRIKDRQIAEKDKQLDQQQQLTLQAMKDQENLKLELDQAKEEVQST
Kind of data set: MST; MST: 25 mM Tris/HCl pH 7.5, 100 mM NaCl, 5% glycerol, 0.025% Tween-20, 25 C, 10 nM DNA probe; EMSA: 25 mM Tris/HCl pH 7.5, 100 mM NaCl, 5% glycerol, 100 ng DNA. Particulars: protein: recombinant; tags: C-terminal 6xHis, removed with TEV protease; label: 5' Cy5 on strand 1; blunt. On the technique in general: Mobility shift assays separate free from complexed probe on a gel.

B1: dnaC_Cy5 (dsDNA)
DNA 1: GTCAACCAAGCTTACGAAGCGTCACAACCAGCTGATGAAATTATTGCTCA
DNA 2: TGAGCAATAATTTCATCAGCTGGTTGTGACGCTTCGTAAGCTTGGTTGAC
In the case of B1, the dissociation constant (Kd) amounted to 34 µM.
